The source of these data is PMC12205653 (The Journal of Biological Chemistry, 2025).

The target of assay [1] is endogenous CAPN2 (human (endogenous in MDA-MB-231)) (UniProt P17655).
The target in assay [2] is T1, His10-LgBiT-CAPNS1 (human, UniProt P04632 60-268).
T1 construct: CAPNS1, calpain small regulatory subunit, human, penta-EF-hand domain PEF(S), residues 60-268; Cloned in pET16b; also called CAPNS1 PEF(S) biosensor component; source: E. coli BL21 RIPL; not shown: His10, N-terminal, kept; LgBiT, N-terminal, kept
T1 sequence (looked up): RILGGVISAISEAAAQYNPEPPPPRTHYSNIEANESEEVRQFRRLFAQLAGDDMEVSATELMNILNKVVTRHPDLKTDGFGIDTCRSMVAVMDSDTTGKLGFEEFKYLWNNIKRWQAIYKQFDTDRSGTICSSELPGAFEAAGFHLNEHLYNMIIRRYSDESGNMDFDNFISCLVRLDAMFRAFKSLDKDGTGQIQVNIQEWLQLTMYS
As to the kind of experiment: split reporter (BiFC, NanoBiT); fixed 100 nM LgBiT-CAPNS1, increasing SmBiT component, 5 mM Ca2+; estimated KD from the inflection of the plot assuming first-order kinetics; for CAPNS1 with CAPNS1: dimer to monomers. The note with it: both partners purified.

Assay [3] deals with T2, LgBiT-CAPNS1 (mammalian expression construct) (human, UniProt P04632 60-268).
T2 construct: CAPNS1, human, PEF(S) domain, residues 60-268, in pBiT1.1-N (TK/LgBiT); source: HEK293T, transfected, in lysate; not shown: LgBiT, N-terminal, kept
T2 sequence (looked up): T1 sequence (looked up)
As to the kind of experiment: split reporter (BiFC, NanoBiT); LgBiT and SmBiT fusions coexpressed pairwise in transfected HEK293T cells; luciferase signal of cell lysates as fold change over a LgBiT-alone control. Particulars: partners not purified.

In assay [4] the target is T1, His10-LgBiT-CAPNS1. As to the kind of experiment: split reporter (BiFC, NanoBiT); crude bacterial lysates with approximately equimolar biosensor components; 5 mM Mg2+, no Ca2+; fold over His10-LgBiT-CAPNS1 alone. Particulars: partners not purified.
For assay [5], the target named is T1, His10-LgBiT-CAPNS1. As to the kind of experiment: split reporter (BiFC, NanoBiT); fixed 100 nM LgBiT-CAPNS1, increasing SmBiT-CAPN1/2, 5 mM Mg2+ in place of Ca2+; estimated KD from the inflection of the plot assuming first-order kinetics. The note with it: both partners purified.

Chain of endogenous CAPN2 (human (endogenous in MDA-MB-231)) (P17655 20-700): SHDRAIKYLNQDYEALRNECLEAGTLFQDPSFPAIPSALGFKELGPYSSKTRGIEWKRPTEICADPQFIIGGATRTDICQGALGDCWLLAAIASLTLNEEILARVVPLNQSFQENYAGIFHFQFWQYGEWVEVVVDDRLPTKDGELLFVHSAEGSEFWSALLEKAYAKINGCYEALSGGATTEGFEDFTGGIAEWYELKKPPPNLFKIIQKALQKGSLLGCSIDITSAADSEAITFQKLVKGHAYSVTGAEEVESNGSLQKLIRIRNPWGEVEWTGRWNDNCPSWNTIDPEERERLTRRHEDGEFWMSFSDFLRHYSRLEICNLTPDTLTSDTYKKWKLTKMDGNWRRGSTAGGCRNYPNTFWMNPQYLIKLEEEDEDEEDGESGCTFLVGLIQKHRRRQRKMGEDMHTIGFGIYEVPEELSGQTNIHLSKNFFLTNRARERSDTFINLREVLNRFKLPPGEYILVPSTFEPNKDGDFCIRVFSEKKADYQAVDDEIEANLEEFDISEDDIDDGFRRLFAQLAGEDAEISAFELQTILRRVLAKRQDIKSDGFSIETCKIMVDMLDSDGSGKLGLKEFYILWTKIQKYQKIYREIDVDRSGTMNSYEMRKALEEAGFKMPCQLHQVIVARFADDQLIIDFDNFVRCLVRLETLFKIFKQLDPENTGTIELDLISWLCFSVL

“recombinant CAPNS1 Q263R (pMSCV_CAPNS1) (from UniProt P04632 1-268) (natural protein)”: the calpain-2 casein proteolytic activity (zymography of cell lysates), standardized to CAPN2 expression, against WT CAPNS1 in assay [1] was 51 % of the WT.

B1: His6-MBP-SmBiT-CAPNS1 (domain or fragment, human, UniProt P04632 60-268, looked up)
chain: T1 sequence (looked up)
notes: CAPNS1, calpain small regulatory subunit, human, penta-EF-hand domain PEF(S), residues 60-268; Same CAPNS1 stretch as m1 with other tags; m4 with m1 measures the PEF(S):PEF(S) homodimer of CAPNS1; not shown: His6, N-terminal, kept; MBP, N-terminal, kept; SmBiT, N-terminal, kept
As a reminder, the Kd is the concentration at which binding is half-saturated. For B1, the Kd in assay [2] is 635 nM.

B2: SmBiT-CAPN1 (mammalian expression construct) (domain or fragment, human, UniProt P07384 538-714, looked up)
chain: LSEEEIDENFKALFRQLAGEDMEISVKELRTILNRIISKHKDLRTKGFSLESCRSMVNLMDRDGNGKLGLVEFNILWNRIRNYLSIFRKFDLDKSGSMSAYEMRMAIESAGFKLNKKLYELIITRYSEPDLAVDFDNFVCCLVRLETMFRFFKTLDTDLDGVVTFDLFKWLQLTMFA
notes: CAPN1, human, PEF(L) domain, residues 538-714, in pBiT2.1-N (TK/SmBiT); source: HEK293T, transfected, in lysate; not shown: SmBiT, N-terminal, kept
For B2, in assay [3], the “fold increase of bioluminescence over LgBiT-CAPNS1 alone” value was roughly 400 fold.

B3: His6-MBP-SmBiT-CAPN1 (domain or fragment, human, UniProt P07384 538-714, looked up)
chain: B2 chain
notes: CAPN1, calpain-1 catalytic subunit, human, penta-EF-hand domain PEF(L), residues 538-714; Cloned in pHT29 (modified pET16b); also called CAPN1 PEF(L) biosensor component; source: E. coli BL21 RIPL; not shown: His6, N-terminal, kept; MBP, N-terminal, kept; SmBiT, N-terminal, kept
Take B3: the “fold signal over LgBiT-CAPNS1 alone” value in assay [4] amounted to 47 fold. Also, the results for the Kd in assay [5] and in assay [2] were 362 nM and 185 nM, respectively.
